Reference: PMC12095920

What was measured:
[1] = biological target: tau^4R construct (four microtubule-binding repeat domains of human tau) (human) (UniProt P10636)
[2] = biological target: tau^4R construct (four microtubule-binding repeat domains of human tau) (human), P10636
Sequence of tau^4R construct (four microtubule-binding repeat domains of human tau) (human), P10636 (P10636 561-689): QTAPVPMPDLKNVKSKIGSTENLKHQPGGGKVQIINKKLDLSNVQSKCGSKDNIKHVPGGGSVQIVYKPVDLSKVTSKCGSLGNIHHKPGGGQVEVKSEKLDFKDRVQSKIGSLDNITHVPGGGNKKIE

## apical domain of human CCT3 (from UniProt P49368 223-383) (domain or fragment)
[1]
  ThT fluorescence after 23 h in the presence of apiCCT3, relative to tau^4R alone (not shown): 2.5%

B1: apical domain of human CCT7, Q99832 207-376 (domain or fragment)
chain: DSQLVAGVAFKKTFSYAGFEMQPKKYHNPKIALLNVELELKAEKDNAEIRVHTVEDYQAIVDAEWNILYDKLEKIHHSGAKVVLSKLPIGDVATQYFADRDMFCAGRVPEEDLKRTMMACGGSIQTSVNALSADVLGRCQVFEETQIGGERYNFFTGCPKAKTCTFILRG
[2]
  ThT fluorescence after 23 h in the presence of apiCCT7, relative to tau^4R alone: 30%
